In the supplement of paper PMC9170038:

Test system: MS2 coat protein
Experiment: apparent KD of MS2 coat protein; designed switch direction (-1 OFF switch, 1 ON switch): 1; higher = weaker reporter binding
How it was run: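 The apparent KD reported per design is the median over clusters of curve fits to normalised cluster fluorescence. The RNA switches were transcribed on Illumina chips by stalled E. coli RNA polymerase. SNAP-549-labelled MS2 coat protein was titrated from 0.7 or 1.5 nM, doubling up to 3 µM, in Tris-HCl pH 7.5 buffer containing KCl, MgCl2, BSA, DTT, tRNA and Tween-20, with no input, 200 uM small-molecule ligand, or an oligonucleotide input.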

[1] = Eterna round: R95, input ligand: FMN 200 uM
[2] = Eterna round: R95, input ligand: microRNA oligo, concentration not stated
[3] = Eterna round: R95, input ligand: none
[4] = input ligand: microRNA oligo, concentration not stated

Sequence | apparent KD of MS2 coat protein [1] | apparent KD of MS2 coat protein [2] | apparent KD of MS2 coat protein [3] | apparent KD of MS2 coat protein (input ligand: FMN 200 uM) | apparent KD of MS2 coat protein [4] | apparent KD of MS2 coat protein (input ligand: none)
GAAAAGGCAACGCAGGAUAUGAAAGGUGAAACAUGAGGAUCACCCAUGUGCUACCUUCCGAUAAAUCAGAAGGGCGACGCCAAAA [Leceave] (puzzle: Same State 2) | 15.4 nM | 15.6 nM | 19.4 nM |  |  | 
GACAUUCUAUCUCAGGAUAUCAUGUCAAAGACAUGAGGAUCACCCAUGUACCAGGAAACUGGUUAUGAGAAGGGAGAUAGAAUGA [Mat - Same State 2 - Mod - D46] (puzzle: Same State 2) | 103 nM | 1880 nM | 176 nM |  |  | 
GACCGCGAGGAAGGAUAUGGAGCCUUAUUGGCUCCAGAAGGUCCAUAAAGGACAUGAGGAUCACCCAUGUGGGCUGAAGCGGUC [Fiskers NG1ss - 9] (Eterna round: R96, puzzle: Same State NG 1) |  |  |  | 22 nM | 25.8 nM | 35.1 nM
GACCGCGAGGAAGGAUAUGGAGCCUUAUUGGCUCCAGAAGGUCCAUAAAGGACAUGAGGAUCACCCAUGUGGGUUGGAGCGGUC [Fiskers NG1ss - 0] (Eterna round: R96, puzzle: Same State NG 1) |  |  |  | 32.8 nM | 96.2 nM | 176 nM
GAGAAGAGGGACAAGGAUAUGUCAGGAGAGACAUGAGGAUCACCCAUGUAGAGGAAGAGAGAGAGACAGAAGGUGUCGAGAGCGA [JR_SS2_Sub015] (puzzle: Same State 2) | 118 nM | 66 nM | 130 nM |  |  | 
GAGAGAGGAAGCGAGGAUAUCGUGUUGGGUACAUGAGGAUCACCCAUGUUGUAGGUAGAGGUAGGCGAGAAGGCGCAGGAGAGGU [JR_SS2_Sub096] (puzzle: Same State 2) | 105 nM | 67 nM | 195 nM |  |  | 
GAGAGAGGGCGAGGAUAUUCGGUGAUAAUGAUGGGAGAAGGCGCAGACAUGAGGAUCACCCAUGUGGGAAUAAUCCAGAGAGAG [Parity 13 - Jieux - Same State NG 1] (Eterna round: R96, puzzle: Same State NG 1) |  |  |  | 151 nM | 111 nM | 185 nM
GAGCCAGUCCGAGGAUAUUCACAUGAGGAUCACCCAUGUAGGCUCAGAAAAGAAAAGGAGCCUUGGGAGAAGGCGGACUGGCUC [Xeonanisa<<8] (Eterna round: R96, puzzle: Same State NG 2) |  |  |  | 6.35 nM | 9.87 nM | 13.3 nM
GAGCCAGUCCGAGGAUAUUCAUAAAUUAAAUACAUGAGGAUCACCCAUGUAGGCAGAGAGCCUUGGGAGAAGGCGGACUGGCUC [Xeonanisa>>3] (Eterna round: R96, puzzle: Same State NG 2) |  |  |  | 10.9 nM | 25.5 nM | 37.3 nM
GAGGAACAGGCCAACAUGAGGAUCACCCAUGUCCUCGCAUUUCAGGAUAUCUGGAAGAAGAAAAAAGAGAAGGGAAGGUGAAGC [AK SSNG3-V2-34.3] (Eterna round: R96, puzzle: Same State NG 3) |  |  |  | 198 nM | 140 nM | 165 nM
GAGGGACAGACCAACAUGAGGAUCACCCAUGUCCUCGCAGUUCAGGAUAUCCGGAGGUAGACGAAGGAGAAGGGAAGGUGAACC [AK SSNG3-V2-36] (Eterna round: R96, puzzle: Same State NG 3) |  |  |  | 266 nM | 382 nM | 207 nM
GAGGGACAGACCAACAUGAGGAUCACCCAUGUCCUCGGAGGUCAGGAUAUCCGGAGGUAGCCGAAGGAGAAGGGACGGUGAACC [AK SSNG3-V2-30.1] (Eterna round: R96, puzzle: Same State NG 3) |  |  |  | 322 nM | 136 nM | 197 nM
GAGUAGUUGAAAGGAUAUUGAUUGUUAUAGAAUCAAGAAGGUUCUAACAUGAGGAUCACCCAUGUAGGACUAUUCCUGUGUAUC [Parity 78 - Jieux - Same State NG 1] (Eterna round: R96, puzzle: Same State NG 1) |  |  |  |  | 9.15 nM | 
GAGUAGUUGGAAGGAUAUCGAUUGUUAUAGAAUCGAGAAGGUCCUAACAUGAGGAUCACCCAUGUAGGACUAUUCCUGUGUAUC [Parity 76 - Jieux - Same State NG 1] (Eterna round: R96, puzzle: Same State NG 1) |  |  |  |  | 8.12 nM | 
GAGUAGUUGGGAGGAUAUCGAUUGUUAUAGAAUCGAGAAGGUUCUAACAUGAGGAUCACCCAUGUAGGACUAUUCCUGUGUAUC [Parity 74 - Jieux - Same State NG 1] (Eterna round: R96, puzzle: Same State NG 1) |  |  |  |  | 37.3 nM | 
GAGUGGCAGUAAGGAUAUAUAAUGAUAAUCACAGUAGAAGGUACUGACAUGAGGAUCACCCAUGUAGGACUAAACCAGAGAGAG [Parity 43 - Jieux - Same State NG 1] (Eterna round: R96, puzzle: Same State NG 1) |  |  |  | 33.8 nM | 20.2 nM | 20.1 nM

Sequence | apparent KD of MS2 coat protein [1] | apparent KD of MS2 coat protein [2] | apparent KD of MS2 coat protein [3] | apparent KD of MS2 coat protein (input ligand: FMN 200 uM) | apparent KD of MS2 coat protein [4] | apparent KD of MS2 coat protein (input ligand: none)
GAGUGGUAAAGAGGAUAUGCAUUGUUAUUCACUGUAGAAGGUUUUAACAUGAGGAUCACCCAUGUAGGACUAUUCCUGUGUUUC [Parity 63 - Jieux - Same State NG 1] (Eterna round: R96, puzzle: Same State NG 1) |  |  |  | 14.4 nM | 11.8 nM | 17.3 nM
GAUAAACAUGAGGAUCACCCAUGUAAUAAUAUGGGAGGAUAUCAGAAUGUAUGUAUGUAAUGAGAAGGCCUAAAUG [Mat - Same State 1 - Mod of Eli - D73] (puzzle: Same State 1) | 104 nM | 425 nM | 309 nM |  |  | 
GAUUCACAUGAGGAUCACCCAUGUCGUUAUAUGGGAGGAUAUACGUGGACCGUAGUCCGCGUAGAAGGCCUAAUUG [JL-ss1-3.25 janelle mod] (puzzle: Same State 1) |  | 303 nM |  |  |  | 
GCAAUGGCGGUAGGAUAUCUAGGAUAUGGGAAAGACUAAGUCUGUAGGUCACCUAACCCAGAAGGAGAGAAGGACCCUGUAAGG [pwkr ssNG2 2FMN + F9.24] (Eterna round: R96, puzzle: Same State NG 2) |  |  |  | 43.2 nM | 9.31 nM | 30.8 nM
GCCAUCCAGUGAGGAUAUGGCACCGUUUCGGUGCCAGAAGGCAUGUCAAUUGACAUGAGGAUCACCCAUGUAUUAUGGAUGGCA [JL Fiskers NG1ss - 33 mod 1] (Eterna round: R96, puzzle: Same State NG 1) |  |  |  | 96.2 nM | 423 nM | 1110 nM
GCCGAACAUGAGGAUCACCCAUGUCUGGGUAAUCAAGGAUAUGGGAAGGCUUUGCCAUGACCAGAAGGUGGUUAUC [Zari] (Eterna round: R96, puzzle: Same State 1) |  |  |  | 26.3 nM | 38.9 nM | 53.5 nM
GCCGCACAUGAGGAUCACCCAUGUAAUUACAUGGGAGGAUAUCAGUGCUCGAAAGAGCACUGAGAAGGCCUGAGGC [SS1 - Omei A v1] (Eterna round: R96, puzzle: Same State 1) |  |  |  | 887 nM | 42.4 nM | 74.8 nM
GCCGCACAUGAGGAUCACCCAUGUAAUUACAUGGGAGGAUAUCAGUGCUCGAAAGAGCACUGAGAAGGCCUGAGGC [SS1 - Omei A v1] (puzzle: Same State 1) | 296 nM | 32.2 nM | 28.8 nM |  |  | 
GCCGCGUUUCGCGCCUACAUGAGGAUCACCCAUGUUUGUAGGCAGGAUAUCGUUUGCUUUGCAAGCGAGAAGGGCUGUUGUGGC [salish99_SSNG3_R04_015] (Eterna round: R96, puzzle: Same State NG 3) |  |  |  | 44.3 nM | 39.2 nM | 50.7 nM
GCGAACUGUGUAGGAUAUUGAGCACUUUUGGAGCAAGAAGGACACCAAGUGCUGACUAUACAUGAGGAUCACCCAUGUUCAGCA [Eternabot solution 22] (Eterna round: R96, puzzle: Same State NG 1) |  |  |  |  | 21.4 nM | 
GCGAAGAGGUAAGGAUAUUCAUGGCGGAGACAUGAGGAUCACCCAUGUAGGAGACGAAAUCAAAGGGAGAAGGUACCAGGACGC [AK SSNG2-V2-15] (Eterna round: R96, puzzle: Same State NG 2) |  |  |  | 82.2 nM | 159 nM | 160 nM
GCGAGCGUACUUGCAGACAUGAGGAUCACCCAUGUAACUGGACAGGAUAUGGUACCGUUUCGGUACCAGAAGGGUUCAUAUGUC [JL SSNG3 3.53] (Eterna round: R96, puzzle: Same State NG 3) |  |  |  | 67.6 nM | 50.8 nM | 79.4 nM
GCGAGCGUACUUGCAGACAUGAGGAUCACCCAUGUAACUGGACAGGAUAUGGUACCGUUUCGGUACCAGAAGGGUUUACUCAUG [JL SSNG3 3.57] (Eterna round: R96, puzzle: Same State NG 3) |  |  |  | 67.2 nM | 84 nM | 69.1 nM
GCGAGCGUACUUGCAGACAUGAGGAUCACCCAUGUAACUGGACAGGAUAUGGUACCGUUUCGGUACCAGAAGGGUUUAUCAUGU [JL SSNG3 3.55] (Eterna round: R96, puzzle: Same State NG 3) |  |  |  | 167 nM | 140 nM | 193 nM
GCGAGCGUACUUGCUACAUGAGGAUCACCCAUGUUUGAUGGACAGGAUAUGGUACCGUUUCGGUACCAGAAGGGUUCACAUGUA [JL SSNG3 3.79] (Eterna round: R96, puzzle: Same State NG 3) |  |  |  | 71.4 nM | 268 nM | 214 nM
